The results in this text go back to paper PMC11479839.

Where two headings read alike, the source gives them in different places.

Data set [1] has as its target T1, N-myc;MAX (human;human, UniProt P04198;P61244 1-464;1-160, |). The data set can be described thus: fluorescence anisotropy. For orientation: Polarisation of emitted light reports the rotation of a fluorescent probe.
For data set [2], the target named is T1, N-myc;MAX. Put plainly: fluorescence anisotropy. This is another data set of the same source.

T1 sequence (P04198 whole entry, chain 1 of 2): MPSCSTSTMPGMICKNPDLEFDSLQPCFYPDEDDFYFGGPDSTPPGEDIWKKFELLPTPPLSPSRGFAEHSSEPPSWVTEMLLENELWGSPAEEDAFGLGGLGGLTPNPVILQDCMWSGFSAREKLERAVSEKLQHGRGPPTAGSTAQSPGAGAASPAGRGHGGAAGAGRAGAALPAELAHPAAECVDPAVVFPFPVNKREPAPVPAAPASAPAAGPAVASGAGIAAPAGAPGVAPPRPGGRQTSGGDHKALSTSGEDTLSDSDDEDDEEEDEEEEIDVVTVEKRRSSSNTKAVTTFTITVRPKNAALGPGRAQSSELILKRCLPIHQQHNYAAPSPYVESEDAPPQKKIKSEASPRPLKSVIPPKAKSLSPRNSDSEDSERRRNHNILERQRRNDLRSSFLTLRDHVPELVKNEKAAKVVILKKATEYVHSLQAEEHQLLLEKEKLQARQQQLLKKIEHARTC
T1 sequence (P61244 whole entry, chain 2 of 2): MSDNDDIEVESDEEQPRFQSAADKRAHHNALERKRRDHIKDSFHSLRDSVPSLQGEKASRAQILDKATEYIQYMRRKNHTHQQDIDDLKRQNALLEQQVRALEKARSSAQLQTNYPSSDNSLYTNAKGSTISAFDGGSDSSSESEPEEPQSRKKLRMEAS

B1: 1 NC Ebox CATATG (table: NC Ebox-TC; text: NCE-TA) (dsDNA)
DNA 1: AGCTTAACTGACCATATGGTCAACTA
DNA 2: TAGTTGACCATATGGTCAGTTAAGCT
On to B1, for which, in data set [1], the equilibrium dissociation constant (Kd) (usually the free concentration of one partner at which half of the binding sites on the other are occupied at equilibrium, for simple one-to-one binding) is approximately 735 nM.

B2: 1Ebox (dsDNA)
DNA 1: AGCTTAACTGACCACGTGGTCAACTA
DNA 2: TAGTTGACCACGTGGTCAGTTAAGCT
Turning to B2, the Kd in data set [2] is approximately 150 nM.

B3: 1 NC Ebox CATCTG (table: NC Ebox-TA; text: NCE-TC) (dsDNA)
DNA 1: AGCTTAACTGACCATCTGGTCAACTA
DNA 2: TAGTTGACCAGATGGTCAGTTAAGCT
Molecule B3 came in with an equilibrium dissociation constant (Kd) in data set [1] of approximately 655 nM.
